Consider nine substances from patent US20030082156A1 (priority 1999, published 2003).

Read-outs that look alike come from different tables or passages of the source.

For assay [1], the target named is dEV8 (peptide name as printed; residues not given) peptide on H-2Kb (mouse).
For assay [2] the target is unchanged. This is another data set of the same source.
For assay [3], the target named is Tax (peptide residues not given) peptide on HLA-A2 (human).
Assay [4] shares this target. This is another data set of the same source.
Assay [5] deals with hen egg conalbumin (CA) peptide on I-Ak (mouse). The experiment in a line: single-chain.
Assay [6] addresses vesicular stomatitis virus nuclear protein (VSV8) peptide on H-2Kb (mouse).
The target is the same in assay [7]. This is another data set of the same source.
Assay [8] has the same target. The experiment in a line: full-length, on cells.
In assay [9] the target is VSV8/K^b (as in the statement of the monomeric affinity; construct not described) (vesicular stomatitis virus; mouse) (UniProt P01901). The experiment in a line: method not stated; BIAcore implied by the sentence. Background: SPR reads the build-up and loss of mass on a sensor chip optically.
Chain of UniProt P01901 (P01901 22-305): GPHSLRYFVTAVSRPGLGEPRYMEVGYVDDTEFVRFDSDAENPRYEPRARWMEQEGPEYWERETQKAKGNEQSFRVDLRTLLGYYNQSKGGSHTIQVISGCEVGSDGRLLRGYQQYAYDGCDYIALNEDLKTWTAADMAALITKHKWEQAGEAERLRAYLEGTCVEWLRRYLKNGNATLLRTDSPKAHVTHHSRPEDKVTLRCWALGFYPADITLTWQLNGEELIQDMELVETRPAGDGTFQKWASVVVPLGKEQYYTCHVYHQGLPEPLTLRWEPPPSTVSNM
Assay [10] has as its target VSV8 octapeptide (RGYVYQGL) bound to K^b on presenting cells (vesicular stomatitis virus; mouse) (UniProt P01887). In words: cell-based or functional assay.
Assay [11] relates to N15 TCRs on immature thymocytes. In kind it is cell-based, mouse.
For assay [12], the system named is DP thymocytes of N15 tg Rag-2−/− H-2b mice. The settings on record: mouse, in vivo.
A further assay deals with N15 TCR. In kind it is binding, mouse. The settings on record: read-out: monomeric affinity of the N15 TCR for peptide/K^b.
Assay [13] concerns the target CA/I-A^k: hen egg conalbumin peptide (residues 134-146) fused by a flexible linker to the N-terminus of the I-A^k β chain, with the I-A^k α chain; leucine zippers cleaved off by thrombin (hen; mouse) (UniProt P02789). In words: method not stated; cited as refs. 5, 26 ('Our unpublished results').

Substance 2C TCR came in with a Kd in [1] of 100 µM. In assay [2], the orientation angle of the TCR on the pMHC worked out at 45 °.
In assay [3], A6 TCR came in with an orientation angle of the TCR on the pMHC of 56 °.
Substance B7 TCR came in with an orientation angle of the TCR on the pMHC in assay [4] of 70 °.
D10 TCR came in with an orientation angle of the TCR on the pMHC in assay [5] of 80 °.
Turning to N15 TCR, the Kd in [6] is > 200 µM. In assay [7], this substance had an orientation angle of the TCR on the pMHC of 54 °. In assay [8], this substance displayed a % CD8 SP thymocytes after 7 days of FTOC of 1% and a % DP thymocytes 24 h after injection of 14%.
Consider “N15 TCR (as in the statement of its monomeric affinity; construct not described)”, for which the Kd in assay [9] was > 200 µM.
For “N15 TCR (on thymocytes and splenic T cells of N15 TCR transgenic mice)”, in assay [10], the DP thymocyte dulling assay: fraction of DP thymocytes dulled is 5%.
In the case of RGYVYQGL [VSV8], in [11], the “fraction of DP thymocytes dulled” value is recorded as ~5% and the “thymocytes falling in the expected CD4/CD8 expression range of DP thymocytes” value is given as 10-26%. Further, the “surviving thymocytes that were DP” value in assay [12] was < 10%. Further, the “% of DP thymocytes” value in [12] (iv) was determined as 14%. Besides, the Kd at N15 TCR is > 200 µM.
In the case of “scD10 TCR (single chain V module of the D10 TCR: Vβ8.2-linker-Vα2, 237 residues, Cys235Ser)”, in assay [13], the Kd is 1 to 2 µM.
